The record followed here is paper doi:10.64898/2025.12.20.695652 (bioRxiv, 2025).

The experiment addresses N237_S47D with C-terminal human Fc tag. The experiment in a line: BLI. For orientation: In BLI a coated tip is dipped into the sample, and binding shifts an interference pattern.

As for “Nipah virus attachment glycoprotein G receptor-binding domain (from UniProt Q9IH62 176-602) (domain or fragment)”, the dissociation constant (Kd) (commonly the free concentration of one partner at which half of the binding sites on the other are occupied at equilibrium, for simple one-to-one binding) is 3.8 nM.
